Test results reported in article PMC2704562 (Biochimica et biophysica acta, 2009).

B1: Mj-MAT W387F (enzyme, Methanococcus jannaschii, UniProt Q58605 1-406, looked up)
chain: MRNIIVKKLDVEPIEERPTEIVERKGLGHPDSICDGIAESVSRALCKMYMEKFGTILHHNTDQVELVGGHAYPKFGGGVMVSPIYILLSGRATMEILDKEKNEVIKLPVGTTAVKAAKEYLKKVLRNVDVDKDVIIDCRIGQGSMDLVDVFERQKNEVPLANDTSFGVGYAPLSTTERLVLETERFLNSDELKNEIPAVGEDIKVMGLREGKKITLTIAMAVVDRYVKNIEEYKEVIEKVRKKVEDLAKKIADGYEVEIHINTADDYERESVYLTVTGTSAEMGDDGSVGRGNRVNGLITPFRPMSMEAASGKNPVNHVGKIYNILANLIANDIAKLEGVKECYVRILSQIGKPINEPKALDIEIITEDSYDIKDIEPKAKEIANKFLDNIMEVQKMIVEGKVTTF
B2: Mj-MAT W387F-Y49W (enzyme, Methanococcus jannaschii, UniProt Q58605 1-406, looked up)
chain: MRNIIVKKLDVEPIEERPTEIVERKGLGHPDSICDGIAESVSRALCKMWMEKFGTILHHNTDQVELVGGHAYPKFGGGVMVSPIYILLSGRATMEILDKEKNEVIKLPVGTTAVKAAKEYLKKVLRNVDVDKDVIIDCRIGQGSMDLVDVFERQKNEVPLANDTSFGVGYAPLSTTERLVLETERFLNSDELKNEIPAVGEDIKVMGLREGKKITLTIAMAVVDRYVKNIEEYKEVIEKVRKKVEDLAKKIADGYEVEIHINTADDYERESVYLTVTGTSAEMGDDGSVGRGNRVNGLITPFRPMSMEAASGKNPVNHVGKIYNILANLIANDIAKLEGVKECYVRILSQIGKPINEPKALDIEIITEDSYDIKDIEPKAKEIANKFLDNIMEVQKMIVEGKVTTF
B3: Mj-MAT W387F-Y255W (enzyme, Methanococcus jannaschii, UniProt Q58605 1-406, looked up)
chain: MRNIIVKKLDVEPIEERPTEIVERKGLGHPDSICDGIAESVSRALCKMYMEKFGTILHHNTDQVELVGGHAYPKFGGGVMVSPIYILLSGRATMEILDKEKNEVIKLPVGTTAVKAAKEYLKKVLRNVDVDKDVIIDCRIGQGSMDLVDVFERQKNEVPLANDTSFGVGYAPLSTTERLVLETERFLNSDELKNEIPAVGEDIKVMGLREGKKITLTIAMAVVDRYVKNIEEYKEVIEKVRKKVEDLAKKIADGWEVEIHINTADDYERESVYLTVTGTSAEMGDDGSVGRGNRVNGLITPFRPMSMEAASGKNPVNHVGKIYNILANLIANDIAKLEGVKECYVRILSQIGKPINEPKALDIEIITEDSYDIKDIEPKAKEIANKFLDNIMEVQKMIVEGKVTTF
B4: Mj-MAT W387F-Y120W (enzyme, Methanococcus jannaschii, UniProt Q58605 1-406, looked up)
chain: MRNIIVKKLDVEPIEERPTEIVERKGLGHPDSICDGIAESVSRALCKMYMEKFGTILHHNTDQVELVGGHAYPKFGGGVMVSPIYILLSGRATMEILDKEKNEVIKLPVGTTAVKAAKEWLKKVLRNVDVDKDVIIDCRIGQGSMDLVDVFERQKNEVPLANDTSFGVGYAPLSTTERLVLETERFLNSDELKNEIPAVGEDIKVMGLREGKKITLTIAMAVVDRYVKNIEEYKEVIEKVRKKVEDLAKKIADGYEVEIHINTADDYERESVYLTVTGTSAEMGDDGSVGRGNRVNGLITPFRPMSMEAASGKNPVNHVGKIYNILANLIANDIAKLEGVKECYVRILSQIGKPINEPKALDIEIITEDSYDIKDIEPKAKEIANKFLDNIMEVQKMIVEGKVTTF
B5: Mj-MAT W387F-Y233W (enzyme, Methanococcus jannaschii, UniProt Q58605 1-406, looked up)
chain: MRNIIVKKLDVEPIEERPTEIVERKGLGHPDSICDGIAESVSRALCKMYMEKFGTILHHNTDQVELVGGHAYPKFGGGVMVSPIYILLSGRATMEILDKEKNEVIKLPVGTTAVKAAKEYLKKVLRNVDVDKDVIIDCRIGQGSMDLVDVFERQKNEVPLANDTSFGVGYAPLSTTERLVLETERFLNSDELKNEIPAVGEDIKVMGLREGKKITLTIAMAVVDRYVKNIEEWKEVIEKVRKKVEDLAKKIADGYEVEIHINTADDYERESVYLTVTGTSAEMGDDGSVGRGNRVNGLITPFRPMSMEAASGKNPVNHVGKIYNILANLIANDIAKLEGVKECYVRILSQIGKPINEPKALDIEIITEDSYDIKDIEPKAKEIANKFLDNIMEVQKMIVEGKVTTF
B6: Mj-MAT W387F-Y344W (enzyme, Methanococcus jannaschii, UniProt Q58605 1-406, looked up)
chain: MRNIIVKKLDVEPIEERPTEIVERKGLGHPDSICDGIAESVSRALCKMYMEKFGTILHHNTDQVELVGGHAYPKFGGGVMVSPIYILLSGRATMEILDKEKNEVIKLPVGTTAVKAAKEYLKKVLRNVDVDKDVIIDCRIGQGSMDLVDVFERQKNEVPLANDTSFGVGYAPLSTTERLVLETERFLNSDELKNEIPAVGEDIKVMGLREGKKITLTIAMAVVDRYVKNIEEYKEVIEKVRKKVEDLAKKIADGYEVEIHINTADDYERESVYLTVTGTSAEMGDDGSVGRGNRVNGLITPFRPMSMEAASGKNPVNHVGKIYNILANLIANDIAKLEGVKECWVRILSQIGKPINEPKALDIEIITEDSYDIKDIEPKAKEIANKFLDNIMEVQKMIVEGKVTTF
B7: Mj-MAT W387F-Y72W (enzyme, Methanococcus jannaschii, UniProt Q58605 1-406, looked up)
chain: MRNIIVKKLDVEPIEERPTEIVERKGLGHPDSICDGIAESVSRALCKMYMEKFGTILHHNTDQVELVGGHAWPKFGGGVMVSPIYILLSGRATMEILDKEKNEVIKLPVGTTAVKAAKEYLKKVLRNVDVDKDVIIDCRIGQGSMDLVDVFERQKNEVPLANDTSFGVGYAPLSTTERLVLETERFLNSDELKNEIPAVGEDIKVMGLREGKKITLTIAMAVVDRYVKNIEEYKEVIEKVRKKVEDLAKKIADGYEVEIHINTADDYERESVYLTVTGTSAEMGDDGSVGRGNRVNGLITPFRPMSMEAASGKNPVNHVGKIYNILANLIANDIAKLEGVKECYVRILSQIGKPINEPKALDIEIITEDSYDIKDIEPKAKEIANKFLDNIMEVQKMIVEGKVTTF
B8: Mj-MAT W387F-Y226W (enzyme, Methanococcus jannaschii, UniProt Q58605 1-406, looked up)
chain: MRNIIVKKLDVEPIEERPTEIVERKGLGHPDSICDGIAESVSRALCKMYMEKFGTILHHNTDQVELVGGHAYPKFGGGVMVSPIYILLSGRATMEILDKEKNEVIKLPVGTTAVKAAKEYLKKVLRNVDVDKDVIIDCRIGQGSMDLVDVFERQKNEVPLANDTSFGVGYAPLSTTERLVLETERFLNSDELKNEIPAVGEDIKVMGLREGKKITLTIAMAVVDRWVKNIEEYKEVIEKVRKKVEDLAKKIADGYEVEIHINTADDYERESVYLTVTGTSAEMGDDGSVGRGNRVNGLITPFRPMSMEAASGKNPVNHVGKIYNILANLIANDIAKLEGVKECYVRILSQIGKPINEPKALDIEIITEDSYDIKDIEPKAKEIANKFLDNIMEVQKMIVEGKVTTF
B9: Mj-MAT W387F-Y267W (enzyme, Methanococcus jannaschii, UniProt Q58605 1-406, looked up)
chain: MRNIIVKKLDVEPIEERPTEIVERKGLGHPDSICDGIAESVSRALCKMYMEKFGTILHHNTDQVELVGGHAYPKFGGGVMVSPIYILLSGRATMEILDKEKNEVIKLPVGTTAVKAAKEYLKKVLRNVDVDKDVIIDCRIGQGSMDLVDVFERQKNEVPLANDTSFGVGYAPLSTTERLVLETERFLNSDELKNEIPAVGEDIKVMGLREGKKITLTIAMAVVDRYVKNIEEYKEVIEKVRKKVEDLAKKIADGYEVEIHINTADDWERESVYLTVTGTSAEMGDDGSVGRGNRVNGLITPFRPMSMEAASGKNPVNHVGKIYNILANLIANDIAKLEGVKECYVRILSQIGKPINEPKALDIEIITEDSYDIKDIEPKAKEIANKFLDNIMEVQKMIVEGKVTTF
B10: Mj-MAT W387F-Y273W (enzyme, Methanococcus jannaschii, UniProt Q58605 1-406, looked up)
chain: MRNIIVKKLDVEPIEERPTEIVERKGLGHPDSICDGIAESVSRALCKMYMEKFGTILHHNTDQVELVGGHAYPKFGGGVMVSPIYILLSGRATMEILDKEKNEVIKLPVGTTAVKAAKEYLKKVLRNVDVDKDVIIDCRIGQGSMDLVDVFERQKNEVPLANDTSFGVGYAPLSTTERLVLETERFLNSDELKNEIPAVGEDIKVMGLREGKKITLTIAMAVVDRYVKNIEEYKEVIEKVRKKVEDLAKKIADGYEVEIHINTADDYERESVWLTVTGTSAEMGDDGSVGRGNRVNGLITPFRPMSMEAASGKNPVNHVGKIYNILANLIANDIAKLEGVKECYVRILSQIGKPINEPKALDIEIITEDSYDIKDIEPKAKEIANKFLDNIMEVQKMIVEGKVTTF
B11: Mj-MAT W387F-Y371W (enzyme, Methanococcus jannaschii, UniProt Q58605 1-406, looked up)
chain: MRNIIVKKLDVEPIEERPTEIVERKGLGHPDSICDGIAESVSRALCKMYMEKFGTILHHNTDQVELVGGHAYPKFGGGVMVSPIYILLSGRATMEILDKEKNEVIKLPVGTTAVKAAKEYLKKVLRNVDVDKDVIIDCRIGQGSMDLVDVFERQKNEVPLANDTSFGVGYAPLSTTERLVLETERFLNSDELKNEIPAVGEDIKVMGLREGKKITLTIAMAVVDRYVKNIEEYKEVIEKVRKKVEDLAKKIADGYEVEIHINTADDYERESVYLTVTGTSAEMGDDGSVGRGNRVNGLITPFRPMSMEAASGKNPVNHVGKIYNILANLIANDIAKLEGVKECYVRILSQIGKPINEPKALDIEIITEDSWDIKDIEPKAKEIANKFLDNIMEVQKMIVEGKVTTF
B12: Mj-MAT W387F-Y323W (enzyme, Methanococcus jannaschii, UniProt Q58605 1-406, looked up)
chain: MRNIIVKKLDVEPIEERPTEIVERKGLGHPDSICDGIAESVSRALCKMYMEKFGTILHHNTDQVELVGGHAYPKFGGGVMVSPIYILLSGRATMEILDKEKNEVIKLPVGTTAVKAAKEYLKKVLRNVDVDKDVIIDCRIGQGSMDLVDVFERQKNEVPLANDTSFGVGYAPLSTTERLVLETERFLNSDELKNEIPAVGEDIKVMGLREGKKITLTIAMAVVDRYVKNIEEYKEVIEKVRKKVEDLAKKIADGYEVEIHINTADDYERESVYLTVTGTSAEMGDDGSVGRGNRVNGLITPFRPMSMEAASGKNPVNHVGKIWNILANLIANDIAKLEGVKECYVRILSQIGKPINEPKALDIEIITEDSYDIKDIEPKAKEIANKFLDNIMEVQKMIVEGKVTTF
B13: Mj-MAT W387F-Y85W (enzyme, Methanococcus jannaschii, UniProt Q58605 1-406, looked up)
chain: MRNIIVKKLDVEPIEERPTEIVERKGLGHPDSICDGIAESVSRALCKMYMEKFGTILHHNTDQVELVGGHAYPKFGGGVMVSPIWILLSGRATMEILDKEKNEVIKLPVGTTAVKAAKEYLKKVLRNVDVDKDVIIDCRIGQGSMDLVDVFERQKNEVPLANDTSFGVGYAPLSTTERLVLETERFLNSDELKNEIPAVGEDIKVMGLREGKKITLTIAMAVVDRYVKNIEEYKEVIEKVRKKVEDLAKKIADGYEVEIHINTADDYERESVYLTVTGTSAEMGDDGSVGRGNRVNGLITPFRPMSMEAASGKNPVNHVGKIYNILANLIANDIAKLEGVKECYVRILSQIGKPINEPKALDIEIITEDSYDIKDIEPKAKEIANKFLDNIMEVQKMIVEGKVTTF

Biological target: the molecule itself
Experiment: AUC
Conditions: not given

Protein | stoichiometry N
B1 | 2
B2 | 2
B3 | 2
B4 | 2
B5 | 2
B6 | 2
B7 | 2
B8 | 2
B9 | 2
B10 | 2
B11 | 2
B12 | 2
B13 | 2

The proteins below were run on Nc1ncnc2c1ncn2[C@@H]1O[C@H](COP(=O)(O)OP(=O)(O)OP(=O)(O)O)[C@@H](O)[C@H]1O (assay: radiometric S-adenosylmethionine formation assay, Michaelis-Menten fit). Conditions: 0.5 mM [methyl-14C]-L-methionine, ATP 0.05-2.5 mM, 55 °C.
Assay type: biochemical, Methanocaldococcus jannaschii

Protein | Km | kcat
B1 | 0.11 ± 0.03 mM | 1.85 ± 0.08 s⁻¹
B7 | 0.11 ± 0.03 mM | 1.62 ± 0.15 s⁻¹
